Assay results published in the supplement of paper PMC10126150.
± gives the standard deviation of the averaged measurements.

What follows are sequences tested on ATP (assay: switch fluorescence ratio, 500 uM ATP over buffer (Cy3 cluster intensity, sum of 5 cycles each) (fold (ratio)); higher = stronger signal-on switching upon ATP binding; sequences stand for … in TCGTCGGCAGCGTCAGATGTGTATAAGAGACAGTTTTTTTTTTTTTTTTTTTTTTTTT…TC). Conditions: aptamer strand: ATP DNA aptamer (quencher-CACCTGGGGGAGTATTGCGGAGGAAGG + anchor), 100 nM annealed; ATP concentration: 500 uM.
Outline: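 The fluorescence ratio divides summed target-cycle Cy3 intensity by summed buffer-cycle Cy3 intensity for each cluster and is averaged per switch-domain sequence. Cy3-labelled switching-strand clusters on a modified Illumina MiSeq flow-cell were annealed to 100 nM quencher-labelled ATP aptamer, then imaged in selection buffer and again after 15 min with 500 uM ATP at 22 °C. Five such cycles were run, with NaOH stripping and re-annealing between them, and clusters outside 100-1000 RFU were excluded.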
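Note: ATP exposure 15 min at 22 °C before imaging.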

Row | Sequence | switch fluorescence ratio
1 | TATTTGGTAT | 0.9862 ± 0.0075
2 | TATTTGTCCA | 0.981 ± 0.047
3 | TATTTGTTTT | 0.998 ± 0.039
4 | TATTTTAATC | 1.04 ± 0.059
5 | TATTTTACGC | 1.01 ± 0.024
6 | TATTTTATAT | 0.943 ± 0.021
7 | TATTTTATGT | 1.021 ± 0.0042
8 | TATTTTGAAC | 1.0289 ± 4.6e-05
9 | TATTTTGAGA | 0.997 ± 0.012
10 | TATTTTGTAG | 0.995 ± 0.019
11 | TATTTTTACA | 1.012 ± 0.0086
12 | TATTTTTGCG | 0.97 ± 0.05
13 | TATTTTTTGT | 1.01 ± 0.021
14 | TATTTTTTTG | 1.01 ± 0.018
15 | TCAAAAGGTG | 1.33 ± 0.22
16 | TCAAAATATA | 0.987 ± 0.061
17 | TCAAAATGCA | 0.9976 ± 0.0092
18 | TCAAAGGGCC | 1.004 ± 0.0073
19 | TCAAAGGGGG | 0.951 ± 0.023
20 | TCAAAGGGGT | 1.052 ± 0.0047
21 | TCAAAGTACC | 1.16 ± 0.073
22 | TCAAATAGCG | 1.031 ± 0.0032
23 | TCAAATAGGA | 1.01 ± 0.012
24 | TCAAATATTT | 0.979 ± 0.0025
25 | TCAAATTTTA | 1.02 ± 0.031
26 | TCAACGAATG | 0.994 ± 0.08

Row | Sequence | switch fluorescence ratio
27 | TCAACGGGAA | 1.01 ± 0.014
28 | TCAACGGTAT | 1.06 ± 0.029
29 | TCAACTATAG | 0.999 ± 0.01
30 | TCAAGAAATC | 0.983 ± 0.091
31 | TCAAGAATGG | 1 ± 0.059
32 | TCAAGACCTT | 1.19 ± 0.014
33 | TCAAGATAGG | 1.014 ± 0.0028
34 | TCAAGCCATC | 1.063 ± 0.0037
35 | TCAAGCGAAC | 1.48 ± 0.061
36 | TCAAGGATGT | 1 ± 0.032
37 | TCAAGGGAAC | 0.9826 ± 0.004
38 | TCAAGGGATC | 0.991 ± 0.073
39 | TCAAGGGCAG | 1.0257 ± 0.00011
40 | TCAAGGGCGG | 0.988 ± 0.044
41 | TCAAGGGGGT | 1.04 ± 0.097
42 | TCAAGGGGTG | 1.034 ± 0.0082
43 | TCAAGGTGTT | 1.15 ± 0.062
44 | TCAATAGATG | 0.998 ± 0.032
45 | TCAATCATTT | 0.997 ± 0.053
46 | TCAATGAAGC | 0.988 ± 0.012
47 | TCAATGAGGG | 1.01 ± 0.03
48 | TCAATGCGAT | 1.33 ± 0.19
49 | TCAATGGGGG | 0.985 ± 0.062
50 | TCAATTATTT | 1 ± 0.023
51 | TCAATTGAGA | 1.02 ± 0.01
52 | TCAATTTAGA | 1.03 ± 0.038

Row | Sequence | switch fluorescence ratio
53 | TCACAATGCT | 1.55 ± 0.016
54 | TCACAATTTA | 0.9774 ± 0.0044
55 | TCACACAGGC | 1.08 ± 0.16
56 | TCACACGGAG | 1.043 ± 0.0056
57 | TCACACGGGG | 1.03 ± 0.061
58 | TCACAGTTGC | 0.99 ± 0.12
59 | TCACATTAAC | 1.04 ± 0.066
60 | TCACATTTTC | 1.09 ± 0.14
61 | TCACCGCACG | 2.2 ± 0.36
62 | TCACGCTGTG | 1.01 ± 0.036
63 | TCACGGGGGA | 1.03 ± 0.039
64 | TCACGGGTGC | 1.91 ± 0.19
65 | TCACGGTTGC | 1.04 ± 0.016
66 | TCACTAGAGT | 0.9722 ± 0.0053
67 | TCACTATATT | 1.08 ± 0.045
68 | TCACTCATAT | 1.02 ± 0.013
69 | TCACTTTGTG | 1.01 ± 0.043
70 | TCAGACTACT | 1.02 ± 0.021
71 | TCAGAGCATC | 1.96 ± 1.1
72 | TCAGAGGAAT | 1.01 ± 0.0089
73 | TCAGAGGCGG | 1 ± 0.011
74 | TCAGATTAGC | 0.998 ± 0.018
75 | TCAGCAAAGT | 1.08 ± 0.019
76 | TCAGCAAATT | 1.09 ± 0.041
77 | TCAGCAATCG | 2.57 ± 0.026
78 | TCAGCATGCG | 0.933 ± 0.025

Row | Sequence | switch fluorescence ratio
79 | TCAGCCCCAT | 1.033 ± 0.0072
80 | TCAGCGTTTC | 1.05 ± 0.027
81 | TCAGGACGGA | 1.018 ± 0.0015
82 | TCAGGAGTCT | 0.977 ± 0.062
83 | TCAGGATGGC | 1.13 ± 0.092
84 | TCAGGATTTC | 1 ± 0.036
85 | TCAGGCATTG | 0.979 ± 0.018
86 | TCAGGCGTGA | 0.987 ± 0.035
87 | TCAGGGACAA | 1.01 ± 0.013
88 | TCAGGGACGG | 0.982 ± 0.025
89 | TCAGGGATTG | 0.977 ± 0.017
90 | TCAGGGCGAA | 0.995 ± 0.016
91 | TCAGGGCGCA | 1.03 ± 0.079
92 | TCAGGGCTAG | 0.9837 ± 0.0093
93 | TCAGGGGACG | 1 ± 0.025
94 | TCAGGGGATG | 0.99 ± 0.026
95 | TCAGGGGCGC | 0.971 ± 0.031
96 | TCAGGGGGTG | 1.05 ± 0.11
97 | TCAGGGTCTT | 1.01 ± 0.011
98 | TCAGGGTGGG | 1 ± 0.029
99 | TCAGGTGTTT | 1.56 ± 0.51
100 | TCAGGTTCGT | 0.987 ± 0.01
101 | TCAGTAAATG | 0.969 ± 0.038
102 | TCAGTAGGGG | 0.978 ± 0.068
103 | TCAGTCGTGG | 0.9928 ± 0.0033
104 | TCAGTCTTTC | 1.017 ± 0.0009

Row | Sequence | switch fluorescence ratio
105 | TCAGTGGGGG | 0.97 ± 0.019
106 | TCAGTGTGCC | 0.995 ± 0.03
107 | TCAGTTCTTC | 0.989 ± 0.011
108 | TCAGTTGGGG | 0.991 ± 0.011
109 | TCAGTTTGGA | 1.01 ± 0.018
110 | TCAGTTTTCC | 1.02 ± 0.018
111 | TCATAAGGCG | 0.986 ± 0.046
112 | TCATAAGTGC | 0.977 ± 0.011
113 | TCATAATGAT | 1.005 ± 0.0032
114 | TCATACATTT | 0.9801 ± 0.0049
115 | TCATACCCTG | 1.024 ± 0.0061
116 | TCATACTCAA | 1.4 ± 0.018
117 | TCATAGGTAC | 1.04 ± 0.031
118 | TCATCAATAT | 1.09 ± 0.067
119 | TCATCACCGT | 1.01 ± 0.021
120 | TCATCATGTT | 1.01 ± 0.043
121 | TCATCCCGGG | 1.052 ± 0.0077
122 | TCATCGGGG | 0.947 ± 0.027
123 | TCATGAGGGG | 0.972 ± 0.036
124 | TCATGCATCT | 1.01 ± 0.072
125 | TCATGGGATG | 1.02 ± 0.018
126 | TCATGGGGAG | 1.03 ± 0.033
127 | TCATGGGGGG | 1.007 ± 0.01
128 | TCATGGTCGT | 0.982 ± 0.023
129 | TCATGGTGTC | 1.01 ± 0.018
130 | TCATGTAGAA | 1.01 ± 0.02

Row | Sequence | switch fluorescence ratio
131 | TCATGTGACT | 1.02 ± 0.053
132 | TCATTATGAA | 0.987 ± 0.054
133 | TCATTCAAGG | 1.02 ± 0.013
134 | TCATTCGGTG | 1.05 ± 0.041
135 | TCATTGGCAT | 1.03 ± 0.037
136 | TCATTGGGGA | 1.032 ± 0.0071
137 | TCATTTTCTT | 0.9688 ± 0.0049
138 | TCATTTTGTT | 1 ± 0.028
139 | TCCAAAATGG | 1.09 ± 0.04
140 | TCCAAACTGT | 1.01 ± 0.051
141 | TCCAAGAGTT | 0.989 ± 0.0055
142 | TCCAAGTGTT | 0.998 ± 0.035
143 | TCCAATATGG | 1.05 ± 0.094
144 | TCCAATGTAA | 1.06 ± 0.041
145 | TCCACAGTGG | 1.35 ± 0.41
146 | TCCACCCTT | 1.03 ± 0.013
147 | TCCACGGATG | 1.04 ± 0.047
148 | TCCAGAGATG | 0.997 ± 0.028
149 | TCCAGAGCGG | 1.34 ± 0.47
150 | TCCAGGATAT | 1.03 ± 0.046
151 | TCCAGGGGAA | 1.03 ± 0.014
152 | TCCAGGGGCG | 1.73 ± 0.99
153 | TCCAGGGGGA | 1.1 ± 0.051
